{
  "source": "paper PMC5421625",
  "about": "(2017)",
  "binders": {"B1": {"name": "w830 clonotype 4 (TCR)", "alpha TRAV12-1*01 TRAJ43*01 CDR3": "CVLNNNDMRF", "beta TRBV19*01 TRBJ1-5*01 CDR3": "CASSILGASNQPQHF"}, "B2": {"name": "w678 clonotype 5 (TCR)", "alpha TRAV38-1*01 TRAJ43*01 CDR3": "CAFRVSHDMRF", "beta TRBV10-2*01 TRBJ2-3*01 CDR3": "CASSSGNPSTDTQYF"}, "B3": {"name": "w678 clonotype 2 (TCR)", "alpha TRAV38-1*01 TRAJ43*01 CDR3": "CAFRVSHDMRF", "beta TRBV19*01 TRBJ2-1*01 CDR3": "CASSIIAGSSYNEQFF"}, "B4": {"name": "w830 clonotype 5 (TCR)", "alpha TRAV12-1*01 TRAJ43*01 CDR3": "CVVNANDMRF", "beta TRBV10-3*01 TRBJ2-2*01 CDR3": "CAIRARDQNTGELFF"}, "B5": {"name": "w876 clonotype 5 (TCR)", "alpha TRAV38-1*01 TRAJ23*01 CDR3": "CAYNQGGKLIF", "beta TRBV10-2*01 TRBJ2-2*01 CDR3": "CASSVLNTGELFF"}, "B6": {"name": "w678 clonotype 4 (TCR)", "alpha TRAV12-1*01 TRAJ45*01 CDR3": "CVVATYSGGGADGLTF", "beta TRBV10-2*01 TRBJ2-3*01 CDR3": "CASSSGNPSTDTQYF"}},
  "key": {"[1]": {"molecular_target": "T1, MCPyV (Merkel cell polyomavirus) common T-Ag peptide on HLA-A*02:01 (human)", "T1 peptide": "KLLEIAPNC", "test": "multimer staining"}, "[2]": {"molecular_target": "T2, MCPyV (Merkel cell polyomavirus) common T-Ag peptide on HLA-A*02:01 (human)", "T2 peptide": "KLLEIAPNC", "test": "multimer staining"}},
  "data": [
    {"binder": "B1", "values": [
      {"measurement": "binding result", "setting": "[1]", "result": "recognises"}
    ]},
    {"binder": "B2", "values": [
      {"measurement": "binding result", "setting": "[2]", "result": "recognises"}
    ]},
    {"binder": "B3", "values": [
      {"measurement": "binding result", "setting": "[2]", "result": "recognises"}
    ]},
    {"binder": "B4", "values": [
      {"measurement": "binding result", "setting": "[1]", "result": "recognises"}
    ]},
    {"binder": "B5", "values": [
      {"measurement": "binding result", "setting": "[1]", "result": "recognises"}
    ]},
    {"binder": "B6", "values": [
      {"measurement": "binding result", "setting": "[2]", "result": "recognises"},
      {"measurement": "binding result", "setting": "[1]", "result": "recognises"}
    ]}
  ]
}
